Measurements reported in paper PMC10144703, “Molecular Mechanism of Sirtuin 1 Inhibition by Human Immunodeficiency Virus 1 Tat Protein” (Life, 2023).

Molecular target: T1, human mini-Sirt1 (aa 183-505-(GGGS)2-641-665) (Homo sapiens, UniProt Q96EB6)
T1 construct: aa 183-505-(GGGS)2-641-665; made in house; host or cells: E. coli CodonPlus(DE3)
T1 sequence (Q96EB6 with tags, fused parts or gaps limits assumed): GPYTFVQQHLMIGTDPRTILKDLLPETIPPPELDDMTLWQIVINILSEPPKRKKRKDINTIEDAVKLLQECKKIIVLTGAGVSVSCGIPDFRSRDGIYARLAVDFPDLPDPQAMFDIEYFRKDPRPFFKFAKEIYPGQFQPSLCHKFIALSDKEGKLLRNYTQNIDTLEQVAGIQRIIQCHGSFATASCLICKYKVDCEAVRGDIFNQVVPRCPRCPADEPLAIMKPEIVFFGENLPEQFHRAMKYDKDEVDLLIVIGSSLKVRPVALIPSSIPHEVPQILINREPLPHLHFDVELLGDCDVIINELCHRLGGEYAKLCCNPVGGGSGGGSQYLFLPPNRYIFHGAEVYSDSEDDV
Experiment: FdL assay, mini-Sirt1
Format: biochemical
Conditions: Michaelis–Menten
Source text: A human mini-Sirt1 construct (aa 183-505-(GGGS)2-641-665), as described in [27], was generated in a modified pET-19b with a TEV cleavage site. This construct and human full-length Sirt1 (fl-Sirt1) in pET-15b, Sirt1-(183-664) and Sirt1-(214-664) in pET-15b, mini-Sirt1-∆SBD (aa 214-505-(GGGS)2-641-665) and mini-Sirt1-∆ESA (aa 183–505) in a modified pET-19b with TEV cleavage site, Sirt2-(43-356) in a modified pET-19b with a His6-Sumo tag, Sirt3-(93-399) in a modified pET-32a with Trx-His6 tag and TEV cleavage site, hSirt3-(118-399) in pVFT3S (Sungkyunkwan University, Seoul, Republic of Korea) with His6-Trx tag and TEV cleavage site, Sirt5-(34-302) in pET-151/D-TOPO, and Sirt6-(1-355) in pQE80L.1 were purified as described. Shortly, proteins were expressed at 20 °C (mini-Sirt1 constructs at 16 °C) in E. coli CodonPlus(DE3), cell lysates were cleared by centrifugation, and proteins were purified via affinity chromatography using a nickel NTA column. After digestion with thrombin or TEV protease, proteins were re-run over the nickel NTA column, pooled, and concentrated. The samples were, then, subjected either directly to size exclusion chromatography in 50 mM Tris/HCl, pH 8.0, 150 mM NaCl, 1 mM TCEP, or to an ion exchange chromatography followed by size exclusion chromatography. […]

B1: Tat-Cys^−: Recombinant 86-residue HIV1 Zaire 2 Tat with C22S, C25A, C27A, C30S, C31A, C34S, and C37A (protein)
chain: MDPVDPNIEPWNHPGSQPKTASNRAHAKKSAYHSQVAFITKGLGISYGRKKRRQRRRPSQGGQTHQDPIPKQPSSQPRGDPTGPKE
inhibition mode vs acetylated substrate peptide, Sirt1 (FdL-1, mini-Sirt1, increasing Tat-Cys^−, n = 3): competitive with the acetylated substrate peptide
inhibition mode vs NAD^+, Sirt1 (NAD^+, mini-Sirt1, increasing Tat-Cys^−, n = 3–6): non-competitive with NAD^+
